Assay results as given in patent US20100216693A1, “COMPOSITIONS AND METHODS OF TREATING DIABETES” (priority 2005, published 2010).
Entries after “also recorded” stand apart in the source; their conditions may differ.

Key:
[1] = biological target: T1, insulin immobilized on the surface of CM5 chip (Homo sapiens, UniProt P01308); assay: SPR: direct binding of C-peptide and variants to insulin immobilized on CM5 chip; details: pM-μM, pH 3-7
T1 construct: 28; purchased Novo Nordisk A/S, Denmark Actrapid
Method: BiacorA Biacore 3000 instrument was employed for the interaction measurements based on surface plasmon resonance (SPR). Interaction analyses were performed at 25° C. in 10 mM Na-citrate buffers pH 3, 4, 5, 10 mM bis-Tris, pH 6, and 10 mM Tris/HC1, pH 7, all buffers containing 100 mM NaCl and 0.005% 5P20. Flow rates for the binding analyses were kept at 20 μl/min. […] Insulin was immobilized on a carboxymethyl-modified dextran surface via both amine and carboxyl coupling, using the surface thiol method, in two different lanes of Biacore CM5 chips. The immobilization was carried out according to the procedure described in the kits. In brief, the sensor chip surface was first washed with 4 M LiCl/HBS for 1 min and then with 0.2% SP20/HBS for 1 mM. The surface was activated according to standard procedure with an injection of 0.05 M NHS/0.2 M EDC for 7 min. Desalted insulin solution was diluted in acetate buffer, pH 4.5, to 20 μg/ml and injected at 50/min for different time intervals. For surface thiol coupling, the surface was first activated with 0.05 M NHS/0.2 M EDC for 2 min followed by a 3 min injection of 40 mM cystamine dihydrochloride and then 0.1 M DTE for 3 min. […] The mixture was incubated for 10 mM at room temperature and excess PDEA was removed on a NAP-10 column. The purified PDEA ligand was injected for 7 min, soon after DTE, and finally the surface was washed with 20 mM PDEA in 0.1 M sodium acetate, 1.0 M NaCl. For quick regeneration of the surface, 2 M guanidine-HC1, pH 6.4, was employed. For controls, lanes activated and deactivated according to the standard procedures were used. For subtraction of noise from the data, running buffer only was injected to all surfaces. […] Similar results where obtained when insulin was injected on C-peptide immobilized on the surface of a streptavidin (SA) chip. Both peptides were injected in concentration ranging from pM-μM at different pH from 3-7. […] This conclusion is compatible with the fact that C-peptide and insulin are joined in proinsulin by covalent bonds rather than binding attachments, and with little ordered structure in the C-peptide part. […] This appears relevant since C-peptide is very negative (−6 charges) with much repulsive forces.

[2] = biological target: T2, chip-bound C-peptide (Homo sapiens, UniProt P01308); assay: SPR: binding of C-peptide in solution to chip-bound C-peptide
T2 sequence (P01308 57-87 limits assumed): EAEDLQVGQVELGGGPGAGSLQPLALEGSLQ
Method: Similar results where obtained when insulin was injected on C-peptide immobilized on the surface of a streptavidin (SA) chip. Both peptides were injected in concentration ranging from pM-μM at different pH from 3-7. […] This conclusion is compatible with the fact that C-peptide and insulin are joined in proinsulin by covalent bonds rather than binding attachments, and with little ordered structure in the C-peptide part. […] This appears relevant since C-peptide is very negative (−6 charges) with much repulsive forces.

[3] = biological target: T3, insulin (Homo sapiens, UniProt P01308); assay: Non-denaturing nano-electrospray mass spectrometry of insulin, C-peptide and control peptides; assay type: binding
T3 construct: 28; purchased Novo Nordisk A/S, Denmark Actrapid
Method: For mass spectrometric analysis, preparation of concentrated insulin stock solution was performed essentially as described [Nettleton et al, 2000, Biophys J. 79:1053]. Briefly, insulin (NovoNordisk A/S, Denmark) was concentrated to 100 μM using ultrafiltration spin-filters (NanoSep, PallGellman, MWCO: 3000 Da). This stock solution was then buffer-exchanged to water, pH 5 (HCl), by extended dialysis. For all experiments, insulin and C-peptide stock solutions were diluted in water-HC1 (pH 5) to reach the indicated concentrations. C-peptide was prepared as a 746 μM stock solution in water and all control peptides were prepared similarly.
Mass spectrometry data were recorded with a QTOF Ultima API instrument (Waters, Milford, Mass.) operated in the positive ion mode. Sample solutions were analyzed by nanoelectrospray from conductive borosilicate glass capillaries (Proxeon Biosystems A/S, Odense, Denmark). Instrument settings were not modified for the observation of non-covalent complexes, other than that the “cone” and the “RF-lens” settings were set to 90 and 50 V, respectively.
The binding between insulin and C-peptide in the gas-phase was studied by non-denaturing electrospray mass spectrometry using a method analogous to that of Nettleton et al [Nettleton et al, 2000, Biophys J. 79:1053].

[4] = biological target: T4, insulin-insulin interaction (Homo sapiens, UniProt P01308); assay: SPR: effect of substances mixed with insulin in solution on insulin-insulin interaction; assay type: binding; details: for effect on insulin-insulin interaction when injected along with insulin: 1:5 molar ratio
T4 construct: 28; purchased Novo Nordisk A/S, Denmark Actrapid
Method: BiacorA Biacore 3000 instrument was employed for the interaction measurements based on surface plasmon resonance (SPR). Interaction analyses were performed at 25° C. in 10 mM Na-citrate buffers pH 3, 4, 5, 10 mM bis-Tris, pH 6, and 10 mM Tris/HC1, pH 7, all buffers containing 100 mM NaCl and 0.005% 5P20. Flow rates for the binding analyses were kept at 20 μl/min. […] Insulin was immobilized on a carboxymethyl-modified dextran surface via both amine and carboxyl coupling, using the surface thiol method, in two different lanes of Biacore CM5 chips. The immobilization was carried out according to the procedure described in the kits. In brief, the sensor chip surface was first washed with 4 M LiCl/HBS for 1 min and then with 0.2% SP20/HBS for 1 mM. The surface was activated according to standard procedure with an injection of 0.05 M NHS/0.2 M EDC for 7 min. Desalted insulin solution was diluted in acetate buffer, pH 4.5, to 20 μg/ml and injected at 50/min for different time intervals. For surface thiol coupling, the surface was first activated with 0.05 M NHS/0.2 M EDC for 2 min followed by a 3 min injection of 40 mM cystamine dihydrochloride and then 0.1 M DTE for 3 min. […] The mixture was incubated for 10 mM at room temperature and excess PDEA was removed on a NAP-10 column. The purified PDEA ligand was injected for 7 min, soon after DTE, and finally the surface was washed with 20 mM PDEA in 0.1 M sodium acetate, 1.0 M NaCl. For quick regeneration of the surface, 2 M guanidine-HC1, pH 6.4, was employed. For controls, lanes activated and deactivated according to the standard procedures were used. For subtraction of noise from the data, running buffer only was injected to all surfaces. For the C-terminal attachment, surface-thiol coupling to 4000-5000 RU was used, and for N-terminal attachment, amine coupling to 800-1000 RU as achieved on different CM5 chips. However for kinetic analysis immobilization was carried out in a controlled condition and around 1000 RU for C-terminal and 400 RU for N-terminal coupling were immobilized. A surface activated with EDC/NHS and deactivated with ethanolamine was used as a control surface for N-terminally immobilized insulin and a surface treated with EDC/NHS, cysteine/DTE and finally deactivated with PDEA-NaCl was used as a control for C-terminally immobilized insulin. Biacore data were analyzed with Bia-evaluation software 4.1. All calculations based on numerical approaches, including simulations and global curve fitting for estimates of active concentrations, were performed with IGOR Pro (version 4.01.A, WaveMetrics, Inc.). However, C-peptide, mixed with insulin in solution, influences the insulin-insulin monomer interactions measured above. […] This elevated interaction can be seen at different pH from 3-7. The phenomenon of more pronounced interaction was clearer when concentrations higher than 0.5 μM were used then below 0.5 μM. […] All concentrations were run in triplicates and in random order.

T1 sequence (P01308 25-54 limits assumed): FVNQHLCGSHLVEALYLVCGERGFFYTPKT
T1 sequence (P01308 90-110 limits assumed): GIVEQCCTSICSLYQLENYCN
T3 sequence (P01308 25-54 limits assumed): as the sequence (P01308 25-54 limits assumed) above
T4 sequence (P01308 25-54 limits assumed): as above

interaction with immobilized insulin (peptide alone in solution) [1]	interaction with immobilized insulin (peptide alone in solution) ([1]; listed as Proinsulin C-peptide)	binding of C-peptide in solution to chip-bound C-peptide [2]	self-aggregation of the peptide in the gas-phase [3]	interaction with insulin in nanoESI-MS at 0.3 μM ([3]; 0.3 μM level, 1:1 ratio)	interaction (heterodimer) with insulin in nanoESI-MS ([3]; 3 μM, 1:1 ratio, pH 5)	concentration at which a dimer of the peptide was detected ([3]; gas-phase) [µM]	effect of C-peptide on insulin-insulin interaction at pH 4 or 7 ([4]; pH 4 or 7, 10 μM insulin, 50 μM C-peptide)	effect of C-peptide on insulin-insulin interaction at pH 5-6 ([4]; pH 5-6, 10 μM insulin, 50 μM C-peptide)	effect on insulin-insulin interaction when injected along with insulin [4]	stimulation of SPR-measurable binding in mixture with insulin in the flow-through solution ([4]; Example 10)	Substance	hexameric insulin charge states in the presence of the peptide ([3]; 30 μM insulin, 30 μM peptide, pH 5)	effect on insulin-insulin interaction (SPR binding signal) when mixed with insulin ([4]; insulin:peptide 1:1 and 1:5, pH 3-7)
not to give any observable binding	showed no interaction with insulin	no evidence for such binding	showed an aggregation tendency	not possible to detect	clearly shows the interaction	3	little effect	Enhanced insulin interaction			Proinsulin C-peptide (EAEDLQVGQVELGGGPGAGSLQPLALEGSLQ)	no hexameric insulin was detectable; also recorded: absence of insulin hexamers	higher interaction with immobilized insulin; also recorded: increases the observable SPR binding signal
showed no interaction with insulin									failed to show any significant increase	did also not stimulate the SPR signal	Glu27-Ala: C-peptide analogue in which Glu 27 has been substituted with Ala (EAEDLQVGQVELGGGPGAGSLQPLALAGSLQ)		
showed no interaction with insulin									failed to show any significant increase		Glu11-Ala: C-peptide analogue in which Glu 11 has been substituted with Ala (EAEDLQVGQVALGGGPGAGSLQPLALEGSLQ)		
